In patent publication US20260133210A1, “CELL-FREE BIOSENSORS FOR IN VITRO DETECTION OF TARGET MOLECULES” (priority 2022, published 2026):
Residue numbers refer to the chain shown, from its start. In names and notes the source's numbering stands.

Assays:
[1] = system: cell-free protein synthesis; assay: Titration of analyte against an unregulated reporter plasmid (pT7-sfGFP) in a cell-free reaction; assay type: biochemical, E. coli; conditions: 100 μM CuSO4
Experimental: A series of tuning experiments are next used to optimize the sensor. First, the optimal concentration of the aTF (CueR) is found for the non-cascaded sensor (e.g., pCue-sfGFP) through a series of ratiometric titrations between the aTF-enriched extract and the blank extract in both the presence and absence of analyte (see e.g., the data in FIG. 7). This experiment is an isothermal cell-free gene expression reaction held at 30° C. in a plate reader for […] using an established set of physiochemical conditions to maximize protein production in general. It may also be necessary to determine the concentration of analyte that saturates the cell-free sensor without inhibiting transcription and translation in vitro, which can be done with a simple titration of analyte against an unregulated reporter plasmid (e.g., pT7-sfGFP).

PbCl2 = assay: Hand-validation of top PbrR variants from the SSM library screen; assay type: biochemical, E. coli; conditions: top 10 variants with the highest fold change from each lead concentration
Description: The top 10 variants with the highest fold change from each lead concentration were hand-validated to validate the results from the SSM library screen.

lead = assay: Enriched extract PbrR lead sensors; assay type: biochemical, E. coli; conditions: FIG. 40 and 41
Experimental: Enriched extract is made by pre-expressing the transcription factor in the E. coli strain before lysing to generate the extract. […] It was also determined that a catechol reporter can be used for improved sensor output. This works by having the PbrR transcription factor bind to PbrO and drive expression of an enzyme that catalyzes a colorimetric change in catechol.

mf-Lon
decay of sfGFP signal (protein degradation) on mixing extracts (pdt-tagged sfGFP): Increasing the concentration of mf-Lon and supplying additional ATP (a co-substrate for the reaction) results in some signal decay

O=S(=O)([O-])[O-].[Cu+2] [CuSO4]
effect on cell-free protein synthesis [1]: shuts down cell-free protein synthesis

B1: M60F (protein)
chain: MNIQIGELAKRTACPVVTIRFYEQEGLLPPPGRSRGNFRLYGEEHVERLQFIRHCRSLDFPLSDVRTLLSYRKRPDQDCGEVNMLLDEHIRQVESRIGALLELKHHLVELREACSGARPAQSCGILQGLSDCVCDTRGTTAHPSD
modifications: Cupriavidus metallidurans
behaviour in the hand-validated SSM results (PbCl2): bind the promoter regardless of whether or not the ligand (lead) is present

B2: G128I, D64K, M60L, and P61N: quadruple variant of PbrR (SEQ ID NO: 47) (protein)
chain: B1 chain with F60L, P61N, D64K, G128I
modifications: Cupriavidus metallidurans
lead detection in enriched extract (lead): can detect lead at the limit of detection

B3: M60L (protein)
chain: B1 chain with F60L
modifications: Cupriavidus metallidurans
behaviour in the hand-validated SSM results (PbCl2): promising
